The results in this text go back to the nanobody polyreactivity screen of Harvey et al. (2022).

This data set is described as follows: yeast display, Sf9 membrane polyspecificity reagent, FACS + sequencing; frameworks hold sequencing errors. In short, it runs like this: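 After 36–48 hours of galactose induction, yeast (Saccharomyces cerevisiae BJ5465) displaying a synthetic nanobody library were stained at 4 °C for 1 hour with 10% biotinylated, detergent-solubilized Sf9 membrane reagent. Streptavidin microbeads enriched the stained cells before FACS sorting into low and high (top ~1%) gates on anti-HA and streptavidin fluorescence. Each clone's polyreactivity label reflects its gate of origin.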
For the sequence “QVQLVESGGGLVQAGGSLRLSCAASGRTIRRYAMGWYRQAPGKERELVAAISYSGGSTYYADSVKGRFTISRDNAKNTVYLQMNSLKPEDTAVYYCAARYLGKKYYYWGQGTQVTVSS”, the “polyreactivity (PSR sort gate)” value is listed as “high polyreactivity”.

As to “QVQLVESGGGLVQAGGSLRLSCAASGRTIRSYAMGWYRQAPGKERELVAAITGSGGRTYYADSVKGRFTISRDNAKNTVYLQLNSLKPEDTAVYYCAARLRGSYDYWGQGTQVTVSS”, the “polyreactivity (PSR sort gate)” value is on record as “high polyreactivity”.

Regarding “QVQLVESGGGLVQAGGSLRLSCAASGRTIRWNAMGWYRQAPGKERELVAAITSRGGSTYYADSVKGRFTISRDNAKNTVYLQMNSLKPEDTAVYYCAKQPKPPPVTGYDYWGQGTQVTVSS”, the “polyreactivity (PSR sort gate)” value is reported as “high polyreactivity”.

“QVQLVESGGGLVQAGGSLRLSCAASGRTIRWYTMGGYRQAPGKEMELVAGISSSGGSTYYADSVKGRFTISRDNAMNTVYLQMNSLKPEDTAVYYCNAQALRLFWRYDYWGQGTQVTVSS”: the “polyreactivity (PSR sort gate)” value was “low polyreactivity”.

Take “QVQLVESGGGLVQAGGSLRLSCAASGRTIRYYAMGWYRQAPGKERELVAAISWNGANTYYADSVKGRFTISRDNAKNTVYLQMNSLKPEDTAVYYCAATYYRWKGYDYWGQGTQVTVSS”: the “polyreactivity (PSR sort gate)” value was “high polyreactivity”.

For the sequence “QVQLVESGGGLVQAGGSLRLSCAASGRTISFNTMAWYRQAPGKERDLVAGIERGGSTNYADSVKVRFTISRDNAKNTVYFQMNSLKPEDTAVYYCAARNLRYRYRNYDYWGQGTQVTVSS”, the “polyreactivity (PSR sort gate)” value is “high polyreactivity”.

On to “QVQLVESGGGLVQAGGSLRLSCAASGRTISKNTMGWYRQAPGKERELVAAISSSGGSTNYADSVKGRFTISRDNAKNTVYLQMNSLKPEETAVYYCAADPWRFRSRPVNYWGQGTQVSVSS”, for which the “polyreactivity (PSR sort gate)” value is “high polyreactivity”.

For “QVQLVESGGGLVQAGGSLRLSCAASGRTISVYGMGWYRQAPGKERELVASITWRGGTTYYADSVKGRFTISRDNAKNTVYLQMNSLKPEDTAVYYCAAYWPYTTYRYRYDYWGQGTQVTVSS”, the “polyreactivity (PSR sort gate)” value is “high polyreactivity”.

Consider “QVQLVESGGGLVQAGGSLRLSCAASGRTISYAMGWYRQAPGKEREMVAAIRYRGGSTYYADSVKGRFTISRDNAKNTVYLQMNSLKPEDTAVYYCAAQDSYTPPILFRRGYLRYDYWGQGTQVTVSS”, for which the “polyreactivity (PSR sort gate)” value is on record as “low polyreactivity”.

In the case of “QVQLVESGGGLVQAGGSLRLSCAASGRTITRNALGWYRQAPGKERELVASINRGGSTNYADSVKGRFTISRDNAKNTDYLQMNSLNPEDTAVYYCYYHVYEQYFWVEYDYWGQGTQVTVSS”, the “polyreactivity (PSR sort gate)” value is given as “high polyreactivity”.

Consider “QVQLVESGGGLVQAGGSLRLSCAASGRTITRNAMGWYRQAPGKERELVAAITTTGGSTYYADYVKGRFTISRDNAKNTVYLQMNSLKPEDNAVYYCNADWVGPFRRATNITTYFGYDYWGQGTQVTVSS”, for which the “polyreactivity (PSR sort gate)” value is listed as “low polyreactivity”.

On to “QVQLVESGGGLVQAGGSLRLSCAASGRTIVRYAMGWYRQAPGKERDLVAAITARGGSTYYADSVKGRFTISRDNAKNTVYLQMNRLKPEDTEVYYCATYYSGSLGRYYYWGKGTQVTVSS”, for which the “polyreactivity (PSR sort gate)” value is “high polyreactivity”.

“QVQLVESGGGLVQAGGSLRLSCAASGRTIVVYGMGWYRQAPGKERELVATINYGGNTYYADSVKGRFTISRDNAKNTVYLQLNSLKPEDTAVYYCATRSYARYYTYDYWGQGTQVTVSS”: the “polyreactivity (PSR sort gate)” value is recorded as “low polyreactivity”.

Consider “QVQLVESGGGLVQAGGSLRLSCAASGRTIWWYAMGWYRQAPGKERELVAAITWIGGSTYYADSVKGRFTISRDNAKNTVYLKMNSLKPEDTAVYFCNVVYYGRTWVPYEWEYDYWGQGTQVTVSS”, for which the “polyreactivity (PSR sort gate)” value is reported as “low polyreactivity”.

In the case of “QVQLVESGGGLVQAGGSLRLSCAASGRTIYLNAMGWYRQAPGKERELVAAISRNGGSTYYADSVKGRFTISRDNAKNTVYLQMNSLKPEDTAVYYCAAEWDDGRSWYWYYLVGFEYWGQGTQVTVSS”, the “polyreactivity (PSR sort gate)” value is given as “high polyreactivity”.

For the sequence “QVQLVESGGGLVQAGGSLRLSCAASGRTIYRYAMGWYRQAPGKERELVAAISRRGGSTYYADSVKGRFTISRDNAKNTVYLHMNSLKPEDSAVYYCNAPFGDVYRTDDYWGQGTQVTVSS”, the “polyreactivity (PSR sort gate)” value is “high polyreactivity”.

Take “QVQLVESGGGLVQAGGSLRLSCAASGRTIYSNAMGGYRQAPGKERELVAAITGSSGSTYYADSVKGRFTISRDNAKNTVYLQMNSLKPEDTAVYYCAASCYCSLVRQLRLRGQGTQVTVSS”: the “polyreactivity (PSR sort gate)” value is reported as “low polyreactivity”.

As to “QVQLVESGGGLVQAGGSLRLSCAASGRTIYYNGMGWDRQAPGKERELVAAITSGGTTSYADSVKGRFTISRDNAKNTVYLQMNSLKPEDTAVYYCARVTDGVVYEYDYWGQGTQVTVSS”, the “polyreactivity (PSR sort gate)” value was “low polyreactivity”.

“QVQLVESGGGLVQAGGSLRLSCAASGRTIYYYAMGWYRQAPGKERELVAAINYGSGGSTYYADSVKGRFTISRDNAKNTVYLQMNSLKPEDTAVYYCNARRQDWPRKAYGYWGQGTQVTVSS”: the “polyreactivity (PSR sort gate)” value is recorded as “high polyreactivity”.

For “QVQLVESGGGLVQAGGSLRLSCAASGRTIYYYAMGWYRQAPGKERELVAAITSGGSTYYADSVKGRFTISRDNEKNTVYLQMNSLKPEDTAVYYCAARPLEGWHYGSWGQGTQVTVSS”, the “polyreactivity (PSR sort gate)” value was “low polyreactivity”.

Consider “QVQLVESGGGLVQAGGSLRLSCAASGRTLAPYAMGWYRQAPGKERELVAISTIGGSTYYADSVKGRFTISRDNAKNTVFLQMNSLKPEDTAVYYCNADATDSYPEKDEHDSWGQGTQVTVSS”, for which the “polyreactivity (PSR sort gate)” value is recorded as “low polyreactivity”.

With “QVQLVESGGGLVQAGGSLRLSCAASGRTLARNAMGWDIQGPGKERELVASINGRTTRTYYADSVKGRFTISRDNAKNTVYLQMNSLKPEDTAVYYCAAERKNKYDYWGQGTQVTVSS”, the “polyreactivity (PSR sort gate)” value is listed as “high polyreactivity”.

Regarding “QVQLVESGGGLVQAGGSLRLSCAASGRTLASNAMGWYRQAPGKERELVAAINRGGSTYYADSVKGRFTISRDNAKNTVYLQMNSLKPEDTAVYSCAVDRYRYPFDYWGQGTQVTVSS”, the “polyreactivity (PSR sort gate)” value was “low polyreactivity”.

For “QVQLVESGGGLVQAGGSLRLSCAASGRTLFPNVMGWYRQAPRQERELFAAITTIGGSTYYADSVKGRITISRDNAKNTVFLQMNSLKPEDTEVYYCNARYRGRGLKFGYWGQGTQVTVSS”, the “polyreactivity (PSR sort gate)” value is “high polyreactivity”.

As to “QVQLVESGGGLVQAGGSLRLSCAASGRTLFYYTMGWYRQAPGKERELVAAISSGDSTNYADSVKGRFTISRDNAKNTVYLQMNSLQPEDTAVYYCATQYLLDYKKTYRTYYSPYDYWGQGTQVTVSS”, the “polyreactivity (PSR sort gate)” value was “low polyreactivity”.

In the case of “QVQLVESGGGLVQAGGSLRLSCAASGRTLGGNAMGWYRQAPGKERELVAAITNSASTYADSVKGRFTISRDNAKNSVYLQMNSLKPEDTAVYYCNAPVPSDQHGDYWGQGTQVTVSS”, the “polyreactivity (PSR sort gate)” value is on record as “low polyreactivity”.

Consider “QVQLVESGGGLVQAGGSLRLSCAASGRTLGGYAMGWYRQAPGKERELVASITARGGSTYYADSVKGRFTISRDNAKNTVYLQMNSLKPEDTAVYYCNKRTRRTYDYWGQGTQVTVSS”, for which the “polyreactivity (PSR sort gate)” value was “high polyreactivity”.

With “QVQLVESGGGLVQAGGSLRLSCAASGRTLGGYAMGWYRQAPRKERELVAVITWNGGSTYADSVKGRFTISRDNAKNTVYLQMNSLKPVDTAVYYCAARQAYYAAFRTRYGYWGQGTQVTVSS”, the “polyreactivity (PSR sort gate)” value is given as “high polyreactivity”.

Regarding “QVQLVESGGGLVQAGGSLRLSCAASGRTLGGYTMGWYRQAPGKERELVAAITTGGSTNYADSVKGRFTISRDNAKNTVYLQMNSLKPEDTAVYYCATELVFDKRYWYDYWGQGTQVTVSS”, the “polyreactivity (PSR sort gate)” value was “low polyreactivity”.

For the sequence “QVQLVESGGGLVQAGGSLRLSCAASGRTLGIYAMGWYRQAPGKERELVADISRDSSTYYADSVKGRFTISRDNAKNTVYLQKNSLKPEDTAVYYCNADQTPRDVTDWWYDYDYWGQGSQVTVSS”, the “polyreactivity (PSR sort gate)” value is on record as “low polyreactivity”.

Turning to “QVQLVESGGGLVQAGGSLRLSCAASGRTLGKNAMGWYRQAPGKEREFVAAISRSGSRTYYADSVKGRFTISRDNEKYTVYLQMNSLKPEDTAVYYCAADGSGHSQRYDYWGQGTQVTVSS”, the “polyreactivity (PSR sort gate)” value is reported as “high polyreactivity”.

Turning to “QVQLVESGGGLVQAGGSLRLSCAASGRTLGKYAMGWYRQAPGKERELVAAIRWTGGNTYYADSVKGRFTISRDNAKNTVYLQMNSLKPEDTAVYYCAAAYWNDWSQYDYWGQGTQVTVSS”, the “polyreactivity (PSR sort gate)” value is “high polyreactivity”.

Consider “QVQLVESGGGLVQAGGSLRLSCAASGRTLGRNAMGWYRHAPGKERELVARISYSGGRTYYADSVKGRFTISRDNAKNTVYLQMNSLKPEDTAVYYCATLGIVHQYDYWGQGTQVTVSS”, for which the “polyreactivity (PSR sort gate)” value is “low polyreactivity”.

Take “QVQLVESGGGLVQAGGSLRLSCAASGRTLGTNAMGWYRQAPGKERELVAAITRNGGSTYYADSVKGRFTISRDNAKNTVYLQMNSLKPEDTAVYYCAARYFHSVGGWPVSYRYNYWGQGTQVTVSS”: the “polyreactivity (PSR sort gate)” value is “high polyreactivity”.

In the case of “QVQLVESGGGLVQAGGSLRLSCAASGRTLGVNAMGWYRQAPGKERELVAAISTRGTTTNYADSVKGRFTISRDNAKNTVYLQMNSLKPEDTAVYYCATRTYRTYPRYDYWGQGTQVTVSS”, the “polyreactivity (PSR sort gate)” value is on record as “high polyreactivity”.

“QVQLVESGGGLVQAGGSLRLSCAASGRTLGYNAVGWYRQAPGKERELVAAINGGDSTYADSVKGRFTISRDNAKNTVYLQMNSLKPEDTAVYYCNALRGGPFRWHGYYYWGQGTQVTVSS”: the “polyreactivity (PSR sort gate)” value is given as “low polyreactivity”.

As for “QVQLVESGGGLVQAGGSLRLSCAASGRTLHDYTMGWYRQAPGKERELVAGITSGGRTNYADSVKGRFTISRDNAKNTVYLQMNSLKPEDTAVYYCAAAWTWWRLYADDYWGQGTQVTVSS”, the “polyreactivity (PSR sort gate)” value was “high polyreactivity”.

In the case of “QVQLVESGGGLVQAGGSLRLSCAASGRTLIHYAMGWYRQAPGKERELVATINIGGRTYADSVKGRFTISRDNAKNTVYLQMNSLKPEDTAVYYCAADHRYSARRSVPTLYDYWGQGTQVTVSS”, the “polyreactivity (PSR sort gate)” value is reported as “low polyreactivity”.

With “QVQLVESGGGLVQAGGSLRLSCAASGRTLKYNAMGWYIQAPGKERELVAGISWSGTRTYYADSVKGRFTISRDIAKNTVYLQMNSLKPEETAVYYCAAYSYLYRSSGFRYNYWGQGTPVTVSS”, the “polyreactivity (PSR sort gate)” value was “high polyreactivity”.

In the case of “QVQLVESGGGLVQAGGSLRLSCAASGRTLLQYTKGWYRQAPGKERELGAAISWSGGRTYYADSVKGRFTISRDNAKNTVYLQMNSLKPEDTAVYYCAARGLKSQYYGAKHEYGYWGLGTQVTVSS”, the “polyreactivity (PSR sort gate)” value was “high polyreactivity”.
